Measurements reported in publication PMC11352367 (Cells, 2024).

Target: the molecule itself
Assay: high-speed atomic force microscopy; α-actinin alone (50 nM) on bare mica, observation buffer, room temperature

B1: Rabbit skeletal muscle-derived α-actinin (natural protein)
chain: MNQIEPGVQYNYVYDEDEYMIQEEEWDRDLLLDPAWEKQQRKTFTAWCNSHLRKAGTQIENIEEDFRNGLKLMLLLEVISGERLPKPDRGKMRFHKIANVNKALDYIASKGVKLVSIGAEEIVDGNVKMTLGMIWTIILRFAIQDISVEETSAKEGLLLWCQRKTAPYRNVNIQNFHTSWKDGLGLCALIHRHRPDLIDYSKLNKDDPIGNINLAMEIAEKHLDIPKMLDAEDIVNTPKPDERAIMTYVSCFYHAFAGAEQAETAANRICKVLAVNQENERLMEEYERLASELLEWIRRTIPWLENRTPEKTMKAMQKKLEDFRDYRRKHKPPKVQEKCQLEINFNTLQTKLRISNRPAFMPSEGKMVSDAGAWQRLEQAEKGYEEWLLNEIRRLERLEHLAEKFRQKASTHETWAYGKEQILLQKDYESASLTEVRALLRKHEAFESDLAAHQDRVEQIAAIAQELNELDYHDAVNVNDRCQKICDQWDRLGTLTQKRREALERTEKLLETIDQLHLEFAKRAAPFNNWMEGAMEDLQDMFIVHSIEEIQSLITAHEQFKATLPEADGERQSIMAIQNEVEKVIQSYNIRISSSNPYSTVTMDELRAKWDKVKQLVPIRDQSLQEELARQHANERLRRQFAAQANAIGPWIQNKMEEIARSSIQITGALEDQMNQLKQYEHNIINYKNNIDKLEGDHQLIQEALVFDNKHTNYTMEHIRVGWELLLTTIARTINEVETQILTRDAKGITQEQMNEFRASFNHFDRRKNGLMDHEDFRACLISMGYDLGEAEFARIMTLVDPNGQGTVTFQSFIDFMTRETADTDTAEQVIASFRILASDKPYILAEELRRELPPDQAQYCIKRMPAYSGPGSVPGALDYTAFSSALYGESDL
- stoichiometry N: 2
